Test results: PMC12492669, “Malic enzyme-based system for transhydrogenation between nicotinamide cofactors” (Synthetic and Systems Biotechnology, 2025)

Tests used:
[1] = substrate: NC(=O)C1=CN([C@@H]2O[C@H](COP(=O)(O)OP(=O)(O)OC[C@H]3O[C@@H](n4cnc5c(N)ncnc54)[C@H](O)[C@@H]3O)[C@@H](O)[C@H]2O)C=CC1; assay: purified protein, by the assay type; design: initial rates at varied cofactor, absorbance at 340 nm, Michaelis-Menten fit, pH 7.5, 25 °C; details: pH 7.5; 25.0 °C
Protocol: (§1) For malic enzymes involved in oxidative decarboxylation, the solution contained 5 mM L-malate and 2 mM MgCl2. For malic enzymes involved in reductive carboxylation, the solution included 10 mM pyruvate, 30 mM NaHCO3 and 2 mM MgCl2. For DLDH∗ involved in pyruvate reduction, initial pyruvate concentration was 10 mM. All reactions were performed in 50 mM HEPES (pH 7.5) at 25 °C, with kinetic data fitted to the Michaelis-Menten equation via nonlinear regression using GraphPad Prism 10.0.2. All assays were performed in triplicate, and error bars show standard deviation. Enzyme activity assays of pure enzymes were conducted in a total volume of 0.1 mL. […] The enzyme activity was monitored by measuring the absorbance at 340 nm using a microplate spectrophotometer (Bio-Tek, VT, USA), with continuous absorbance tracking throughout the assay. One unit of pure enzyme activity was defined as the amount of enzyme required to catalyze the production of 1 μmol NADH, NCDH or NADPH per minute under the specified assay conditions. A molar absorption coefficient of 6220 M^−1 cm^−1 for NADH, NCDH or NADPH was used in the calculations.

[2] = substrate: NC(=O)C1=CN([C@@H]2O[C@H](COP(=O)(O)OP(=O)(O)OC[C@H]3O[C@@H](n4cnc5c(N)ncnc54)[C@H](OP(=O)(O)O)[C@@H]3O)[C@@H](O)[C@H]2O)C=CC1; assay: purified protein, by the assay type; design: initial rates at varied cofactor, absorbance at 340 nm, Michaelis-Menten fit, pH 7.5, 25 °C; details: pH 7.5; 25.0 °C
Protocol: as §1

[3] = substrate: NC(=O)c1ccc[n+]([C@@H]2O[C@H](COP(=O)(O)OP(=O)(O)OC[C@H]3O[C@@H](n4cnc5c(N)ncnc54)[C@H](OP(=O)(O)O)[C@@H]3O)[C@@H](O)[C@H]2O)c1; assay: purified protein, by the assay type; design: initial rates at varied cofactor, absorbance at 340 nm, Michaelis-Menten fit, pH 7.5, 25 °C; details: pH 7.5; 25.0 °C
Protocol: as §1

[4] = substrate: NC(=O)C1=CN([C@@H]2O[C@H](COP(=O)(O)OP(=O)(O)OC[C@H]3O[C@@H](n4ccc(N)nc4=O)[C@H](O)[C@@H]3O)[C@@H](O)[C@H]2O)C=CC1; assay: initial rates of pyruvate reduction, Michaelis-Menten fit; type: biochemical, Lactobacillus helveticus; details: 10 mM pyruvate, 50 mM HEPES pH 7.5, 25 °C, varied: cofactor
[5] = substrate: NC(=O)C1=CN([C@@H]2O[C@H](COP(=O)(O)OP(=O)(O)OC[C@H]3O[C@@H](n4cnc5c(N)ncnc54)[C@H](O)[C@@H]3O)[C@@H](O)[C@H]2O)C=CC1; assay: as above; type: biochemical, Lactobacillus helveticus; details: 10 mM pyruvate, 50 mM HEPES pH 7.5, 25 °C, varied: cofactor
[6] = substrate: NC(=O)C1=CN([C@@H]2O[C@H](COP(=O)(O)OP(=O)(O)OC[C@H]3O[C@@H](n4cnc5c(N)ncnc54)[C@H](OP(=O)(O)O)[C@@H]3O)[C@@H](O)[C@H]2O)C=CC1; assay: as above; type: biochemical, Lactobacillus helveticus; details: 10 mM pyruvate, 50 mM HEPES pH 7.5, 25 °C, varied: cofactor

B1: ME (Escherichia coli K-12) (protein)
chain: MEPKTKKQRSLYIPYAGPVLLEFPLLNKGSAFSMEERRNFNLLGLLPEVVETIEEQAERAWIQYQGFKTEIDKHIYLRNIQDTNETLFYRLVNNHLDEMMPVIYTPTVGAACERFSEIYRRSRGVFISYQNRHNMDDILQNVPNHNIKVIVVTDGERILGLGDQGIGGMGIPIGKLSLYTACGGISPAYTLPVVLDVGTNNQQLLNDPLYMGWRNPRITDDEYYEFVDEFIQAVKQRWPDVLLQFEDFAQKNAMPLLNRYRNEICSFNDDIQGTAAVTVGTLIAASRAAGGQLSEKKIVFLGAGSAGCGIAEMIISQTQREGLSEEAARQKVFMVDRFGLLTDKMPNLLPFQTKLVQKRENLSDWDTDSDVLSLLDVVRNVKPDILIGVSGQTGLFTEEIIREMHKHCPRPIVMPLSNPTSRVEATPQDIIAWTEGNALVATGSPFNPVVWKDKIYPIAQCNNAFIFPGIGLGVIASGASRITDEMLMSASETLAQYSPLVLNGEGMVLPELKDIQKVSRAIAFAVGKMAQQQGVAVKTSAEALQQAIDDNFWQAEYRDYRRTSI
notes: wild-type, recombinant
In the case of B1, the Km [1] is reported as 1.08 ± 0.35 mM, the kcat [1] is reported as 1.88 ± 0.35 s⁻¹ and the kcat/Km [1] is reported as 1740 M⁻¹ s⁻¹. The Km [2] was 0.52 ± 0.12 mM, the kcat [2] was 0.01 s⁻¹ and the kcat/Km [2] was 20 M⁻¹ s⁻¹. The Km [3] was 11.5 ± 1.2 mM, the kcat [3] was 0.58 ± 0.05 s⁻¹ and the kcat/Km [3] was 50 M⁻¹ s⁻¹.

B2: DLDH∗ (D-lactate dehydrogenase, V152R/N213E mutant) (Lactobacillus helveticus; N213E/V152R) (protein)
chain: TKVFAYAIRKDEEPFLNEWKEAHKDIDVDYTDKLLTPETAKLAKGADGVVVYQQLDYTADTLQALADAGVTKMSLRNVGVDNIDMDKAKELGFQITNVPVYSPNAIAEHAAIQAARVLRQDKRMDEKMAKRDLRWAPTIGREVRDQVVGVRGTGHIGQVFMRIMEGFGAKVIAYDIFKNPELEKKGYYVDSLDDLYKQADVISLHVPDVPAEVHMINDKSIAEMKDGVVIVNCSRGRLVDTDAVIRGLDSGKIFGFVMDTYEDEVGVFNKDWEGKEFPDKRLADLIDRPNVLVTPHTAFYTTHAVRNMVVKAFNNNLKLINGEKPDSPVALNKNKF
notes: recombinant; only the V152R/N213E mutant tested; purification and tag not described in main text
In the case of B2, the Km [4] is reported as 0.0711 mM, the Km [5] is reported as 4.84 mM and the Km [6] is reported as 2.11 mM.
